Results on one substance are retold here after patent EP2670776B1.

The experiment has as its target Knob F241R/F243S (knob Fc with F241R/F243S mutations) (human) [IgG part: P0DOX5]. Kind of experiment: size exclusion chromatography, against wild-type knob Fc.

“Knob F241R/F243S (knob Fc with F241R/F243S mutations) (from UniProt P0DOX5 223-449)”: the Reduction in homodimer content is 64.5%.
